Among the data in patent publication US20050142135A1 (published 2005) are Kd values, retold here.

The target of one assay is T1, FSHR^F13A (human, UniProt P23945 18-695).
T1 chain: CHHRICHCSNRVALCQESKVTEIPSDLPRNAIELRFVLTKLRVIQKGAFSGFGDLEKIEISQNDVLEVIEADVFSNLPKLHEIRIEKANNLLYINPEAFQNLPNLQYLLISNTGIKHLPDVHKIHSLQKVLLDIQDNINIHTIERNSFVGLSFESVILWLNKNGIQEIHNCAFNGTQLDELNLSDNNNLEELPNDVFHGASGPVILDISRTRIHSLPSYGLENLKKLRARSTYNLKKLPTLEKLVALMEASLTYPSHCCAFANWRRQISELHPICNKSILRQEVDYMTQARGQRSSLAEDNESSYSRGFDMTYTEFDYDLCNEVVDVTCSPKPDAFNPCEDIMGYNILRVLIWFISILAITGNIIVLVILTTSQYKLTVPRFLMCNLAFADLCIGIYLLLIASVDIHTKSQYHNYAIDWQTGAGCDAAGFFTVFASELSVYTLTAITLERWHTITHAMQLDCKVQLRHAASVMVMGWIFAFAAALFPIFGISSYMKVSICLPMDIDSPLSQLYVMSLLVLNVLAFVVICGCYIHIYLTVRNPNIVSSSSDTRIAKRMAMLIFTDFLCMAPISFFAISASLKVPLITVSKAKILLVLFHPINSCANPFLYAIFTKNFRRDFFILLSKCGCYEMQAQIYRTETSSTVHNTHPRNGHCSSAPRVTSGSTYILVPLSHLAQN

Another assay concerns the target T2, FSHR^L14A (human, UniProt P23945 18-695).
T2 chain: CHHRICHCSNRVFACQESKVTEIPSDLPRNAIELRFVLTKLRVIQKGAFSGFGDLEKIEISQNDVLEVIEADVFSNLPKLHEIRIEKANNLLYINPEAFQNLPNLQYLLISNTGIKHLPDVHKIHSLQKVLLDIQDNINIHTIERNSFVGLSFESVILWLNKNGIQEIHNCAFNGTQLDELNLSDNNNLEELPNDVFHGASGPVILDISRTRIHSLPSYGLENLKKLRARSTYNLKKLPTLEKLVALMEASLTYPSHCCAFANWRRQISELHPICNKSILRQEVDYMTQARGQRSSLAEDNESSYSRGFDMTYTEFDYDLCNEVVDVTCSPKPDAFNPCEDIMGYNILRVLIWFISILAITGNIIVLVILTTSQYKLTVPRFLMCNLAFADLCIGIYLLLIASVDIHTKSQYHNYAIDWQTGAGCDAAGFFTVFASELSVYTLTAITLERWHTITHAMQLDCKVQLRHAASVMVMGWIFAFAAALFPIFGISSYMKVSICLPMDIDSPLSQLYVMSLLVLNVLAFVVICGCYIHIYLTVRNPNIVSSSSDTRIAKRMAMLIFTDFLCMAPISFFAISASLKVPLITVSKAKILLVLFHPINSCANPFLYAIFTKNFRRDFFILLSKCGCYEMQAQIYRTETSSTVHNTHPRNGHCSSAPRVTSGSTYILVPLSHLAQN

The target in the next assay is T3, FSHR^S18A (human, UniProt P23945 18-695).
T3 chain: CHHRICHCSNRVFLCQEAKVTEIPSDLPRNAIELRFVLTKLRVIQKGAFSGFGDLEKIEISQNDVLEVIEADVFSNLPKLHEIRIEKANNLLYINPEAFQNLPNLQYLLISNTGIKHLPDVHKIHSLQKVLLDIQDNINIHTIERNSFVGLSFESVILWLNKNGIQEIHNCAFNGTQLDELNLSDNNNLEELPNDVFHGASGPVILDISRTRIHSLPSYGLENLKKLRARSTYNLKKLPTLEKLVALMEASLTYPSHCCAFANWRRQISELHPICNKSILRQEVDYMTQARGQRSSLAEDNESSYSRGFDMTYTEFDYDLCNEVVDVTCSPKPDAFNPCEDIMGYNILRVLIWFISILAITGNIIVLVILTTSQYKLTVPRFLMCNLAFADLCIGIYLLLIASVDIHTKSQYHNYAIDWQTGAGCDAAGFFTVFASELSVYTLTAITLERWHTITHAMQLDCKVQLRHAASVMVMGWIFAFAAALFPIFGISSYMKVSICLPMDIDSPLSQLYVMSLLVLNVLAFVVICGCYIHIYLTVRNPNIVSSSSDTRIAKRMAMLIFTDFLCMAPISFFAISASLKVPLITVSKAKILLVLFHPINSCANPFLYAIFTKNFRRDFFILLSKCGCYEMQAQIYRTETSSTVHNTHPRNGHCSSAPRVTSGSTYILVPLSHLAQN

A further assay has as its target T4, FSHR^V12A (human, UniProt P23945 18-695).
T4 chain: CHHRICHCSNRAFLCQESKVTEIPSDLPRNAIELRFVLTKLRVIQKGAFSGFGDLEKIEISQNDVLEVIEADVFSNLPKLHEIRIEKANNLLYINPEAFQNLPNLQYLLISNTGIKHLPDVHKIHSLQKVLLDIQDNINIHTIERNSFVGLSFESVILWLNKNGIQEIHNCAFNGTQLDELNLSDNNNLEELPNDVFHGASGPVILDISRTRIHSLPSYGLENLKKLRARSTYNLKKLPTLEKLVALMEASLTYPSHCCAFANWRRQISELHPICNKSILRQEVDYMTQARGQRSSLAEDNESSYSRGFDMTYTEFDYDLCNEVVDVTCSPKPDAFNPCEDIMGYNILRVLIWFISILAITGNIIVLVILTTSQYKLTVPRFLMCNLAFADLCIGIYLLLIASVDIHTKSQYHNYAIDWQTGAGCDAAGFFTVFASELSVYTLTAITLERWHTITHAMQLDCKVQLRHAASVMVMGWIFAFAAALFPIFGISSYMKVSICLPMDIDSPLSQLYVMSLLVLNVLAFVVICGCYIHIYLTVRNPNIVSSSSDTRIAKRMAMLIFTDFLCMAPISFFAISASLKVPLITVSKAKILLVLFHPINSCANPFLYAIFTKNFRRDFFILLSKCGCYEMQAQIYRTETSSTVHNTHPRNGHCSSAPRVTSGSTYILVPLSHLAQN

Another assay concerns the target T5, FSHR^N10A (human, UniProt P23945 18-695).
T5 chain: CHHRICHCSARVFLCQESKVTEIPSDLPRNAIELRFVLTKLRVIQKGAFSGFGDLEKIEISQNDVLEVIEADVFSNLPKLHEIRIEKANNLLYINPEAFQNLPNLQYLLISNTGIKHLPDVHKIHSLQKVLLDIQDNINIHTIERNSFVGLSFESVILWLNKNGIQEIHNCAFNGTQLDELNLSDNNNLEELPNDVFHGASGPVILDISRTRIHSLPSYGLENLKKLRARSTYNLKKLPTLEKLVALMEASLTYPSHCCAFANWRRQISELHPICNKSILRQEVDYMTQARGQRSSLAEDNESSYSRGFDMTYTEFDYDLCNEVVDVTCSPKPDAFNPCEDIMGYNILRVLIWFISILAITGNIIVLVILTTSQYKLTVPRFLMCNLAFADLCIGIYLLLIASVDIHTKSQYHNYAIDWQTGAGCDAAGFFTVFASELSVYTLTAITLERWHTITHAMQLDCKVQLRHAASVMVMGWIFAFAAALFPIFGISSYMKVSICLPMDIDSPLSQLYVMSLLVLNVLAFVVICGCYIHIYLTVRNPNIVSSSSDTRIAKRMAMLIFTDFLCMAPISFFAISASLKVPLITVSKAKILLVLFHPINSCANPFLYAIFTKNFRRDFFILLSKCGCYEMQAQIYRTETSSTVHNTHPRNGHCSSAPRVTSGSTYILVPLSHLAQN

The target in another assay is T6, FSHR^S9A (human, UniProt P23945 18-695).
T6 chain: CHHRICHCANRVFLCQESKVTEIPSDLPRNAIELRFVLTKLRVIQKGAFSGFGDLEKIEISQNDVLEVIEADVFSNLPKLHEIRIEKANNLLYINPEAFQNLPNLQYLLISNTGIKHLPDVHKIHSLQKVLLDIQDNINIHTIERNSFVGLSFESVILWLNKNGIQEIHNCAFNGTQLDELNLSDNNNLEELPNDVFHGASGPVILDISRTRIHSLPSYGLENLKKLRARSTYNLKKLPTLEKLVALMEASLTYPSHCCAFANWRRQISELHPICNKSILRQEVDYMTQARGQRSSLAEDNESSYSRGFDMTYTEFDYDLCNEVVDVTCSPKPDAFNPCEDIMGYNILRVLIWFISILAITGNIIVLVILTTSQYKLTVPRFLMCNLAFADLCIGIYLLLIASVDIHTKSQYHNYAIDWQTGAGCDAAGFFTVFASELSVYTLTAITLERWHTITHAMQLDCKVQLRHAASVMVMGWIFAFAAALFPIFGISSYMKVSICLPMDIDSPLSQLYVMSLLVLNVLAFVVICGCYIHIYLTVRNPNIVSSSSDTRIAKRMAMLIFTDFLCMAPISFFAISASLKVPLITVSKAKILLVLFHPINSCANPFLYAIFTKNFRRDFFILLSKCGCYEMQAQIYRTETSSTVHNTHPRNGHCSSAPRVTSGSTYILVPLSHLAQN

The next assay has as its target K590 Q. Description: 125I-FSH displacement / Scatchard.
The next assay deals with P582 L. Description: 125I-FSH displacement / Scatchard.
Another assay concerns the target P582 F. Description: 125I-FSH displacement / Scatchard.
For another assay, the target named is P582 D. Kind of assay: 125I-FSH displacement / Scatchard.
Another assay concerns the target P582 C. Kind of assay: 125I-FSH displacement / Scatchard.
The target of a further assay is P582 R. Description: 125I-FSH displacement / Scatchard.
The target of another assay is P582 Y. Kind of assay: 125I-FSH displacement / Scatchard.
The target of the next assay is P582 E. Kind of assay: 125I-FSH displacement / Scatchard.
In the next assay the target is P582 Q. Description: 125I-FSH displacement / Scatchard.
The target of another assay is P582 S. Description: 125I-FSH displacement / Scatchard.
In a further assay the target is D. Description: 125I-FSH displacement, Scatchard.
For another assay, the target named is P. Kind of assay: 125I-FSH displacement, Scatchard.
The target of the next assay is C. Kind of assay: 125I-FSH displacement, Scatchard.
Assay [1] addresses T7, human LH receptor, wild type (human, UniProt P22888 27-699). Kind of assay: 125I-hCG displacement / Scatchard; panels D-F.
For assay [2], the target named is T7, human LH receptor, wild type. Kind of assay: 125I-hCG displacement / Scatchard; panels A-C.

T7 sequence (P22888 27-699): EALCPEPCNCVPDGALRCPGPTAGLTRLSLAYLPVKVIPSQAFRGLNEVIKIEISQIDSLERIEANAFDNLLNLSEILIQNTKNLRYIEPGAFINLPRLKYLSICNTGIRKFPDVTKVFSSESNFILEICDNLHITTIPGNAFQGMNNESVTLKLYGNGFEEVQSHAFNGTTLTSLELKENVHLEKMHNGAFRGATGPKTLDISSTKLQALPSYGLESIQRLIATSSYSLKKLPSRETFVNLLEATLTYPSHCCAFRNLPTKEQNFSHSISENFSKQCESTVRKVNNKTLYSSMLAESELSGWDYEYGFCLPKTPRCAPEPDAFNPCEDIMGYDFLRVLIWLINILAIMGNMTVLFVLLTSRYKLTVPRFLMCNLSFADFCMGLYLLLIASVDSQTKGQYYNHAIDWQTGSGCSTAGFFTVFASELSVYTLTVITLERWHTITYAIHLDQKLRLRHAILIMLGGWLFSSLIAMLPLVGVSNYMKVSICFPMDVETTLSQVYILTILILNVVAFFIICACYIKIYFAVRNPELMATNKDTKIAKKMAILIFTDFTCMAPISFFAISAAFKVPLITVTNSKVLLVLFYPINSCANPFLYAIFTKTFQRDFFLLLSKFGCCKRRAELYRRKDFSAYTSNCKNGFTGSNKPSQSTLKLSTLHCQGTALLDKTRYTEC

B1: human FSH (ligand)
chain 1: not shown
chain 2: NSCELTNITIAIEKEECRFCISINTTWCAGYCYTRDLVYKDPARPKIQKTCTFKELVYETVRVPGCAHHADSLYTYPVATQCHCGKCDSDSTDCTVRGLGPSYCSFGEMKE
One may read the Kd as the equilibrium constant for the complex coming apart. On to B1, for which the Kd amounted to 2.56 nM with FSHR^F13A; 1.37 nM with FSHR^L14A; 3.64 nM with FSHR^S18A; 2.53 nM with FSHR^V12A; 1.56 nM in the assay with FSHR^N10A; 2.78 nM with FSHR^S9A.

B2: FSH (ligand)
chain 1: not shown
chain 2: NSCELTNITIAIEKEECRFCISINTTWCAGYCYTRDLVYKDPARPKIQKTCTFKELVYETVRVPGCAHHADSLYTYPVATQCHCGKCDSDSTDCTVRGLGPSYCSFGEMKE
As for B2, the Kd with K590 Q came to 19.6 nM; in the assay with P582 L it was 1.9 nM; with P582 F it was 4.7 nM; in the assay with P582 D, 3.6 nM; with P582 C, 2.4 nM; with P582 R it was 4.1 nM. Further, the Kd is 4.3 nM with P582 Y; 6.5 nM with P582 E; 6.2 nM in the assay with P582 Q; 4.5 nM in the assay with P582 S; 1.2 nM in the assay with D; 1.6 nM with P. Moreover, binding in the assay with C was characterised by a dissociation constant (Kd) of 3.9 nM.

B3: hCG (ligand)
chain 1: not shown
chain 2: SKEPLRPRCRPINATLAVEKEGCPVCITVNTTICAGYCPTMTRVLQGVLPALPQVVCNYRDVRFESIRLPGCPRGVNPVVSYAVALSCQCALCRRSTTDCGGPKDHPLTCDDPRFQDSSSSKAPPPSLPSPSRLPGPSDTPILPQ
Take B3: the Kd in assay [1] and in assay [2] was 0.412 nM in each case.
